# Literature values in article PMC11741591.
# Biological target: reelin receptors (ApoER2/VLDLR) (Homo sapiens) (UniProt Q14114)
# UniProt Q14114, sequence (Q14114 33-826): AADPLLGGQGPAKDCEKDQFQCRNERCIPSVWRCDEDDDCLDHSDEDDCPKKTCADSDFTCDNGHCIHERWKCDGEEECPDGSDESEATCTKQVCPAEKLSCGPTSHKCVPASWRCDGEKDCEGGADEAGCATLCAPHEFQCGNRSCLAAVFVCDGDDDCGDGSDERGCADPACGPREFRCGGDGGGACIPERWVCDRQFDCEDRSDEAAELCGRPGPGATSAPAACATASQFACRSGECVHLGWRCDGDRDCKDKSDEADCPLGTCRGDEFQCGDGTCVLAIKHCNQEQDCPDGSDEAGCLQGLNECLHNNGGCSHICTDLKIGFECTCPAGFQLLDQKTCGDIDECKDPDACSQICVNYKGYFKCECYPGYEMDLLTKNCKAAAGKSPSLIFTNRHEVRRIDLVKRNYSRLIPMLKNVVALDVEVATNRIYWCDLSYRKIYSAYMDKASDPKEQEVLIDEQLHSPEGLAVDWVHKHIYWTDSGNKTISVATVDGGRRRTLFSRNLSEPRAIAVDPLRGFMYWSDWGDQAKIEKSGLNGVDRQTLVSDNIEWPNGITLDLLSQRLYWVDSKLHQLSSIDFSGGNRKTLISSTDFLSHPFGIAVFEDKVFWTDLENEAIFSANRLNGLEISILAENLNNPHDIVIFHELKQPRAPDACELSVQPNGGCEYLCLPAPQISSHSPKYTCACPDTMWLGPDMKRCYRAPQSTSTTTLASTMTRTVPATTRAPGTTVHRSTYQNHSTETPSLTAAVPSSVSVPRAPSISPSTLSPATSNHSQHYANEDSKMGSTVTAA
# reelin, sequence (P78509 26-3460): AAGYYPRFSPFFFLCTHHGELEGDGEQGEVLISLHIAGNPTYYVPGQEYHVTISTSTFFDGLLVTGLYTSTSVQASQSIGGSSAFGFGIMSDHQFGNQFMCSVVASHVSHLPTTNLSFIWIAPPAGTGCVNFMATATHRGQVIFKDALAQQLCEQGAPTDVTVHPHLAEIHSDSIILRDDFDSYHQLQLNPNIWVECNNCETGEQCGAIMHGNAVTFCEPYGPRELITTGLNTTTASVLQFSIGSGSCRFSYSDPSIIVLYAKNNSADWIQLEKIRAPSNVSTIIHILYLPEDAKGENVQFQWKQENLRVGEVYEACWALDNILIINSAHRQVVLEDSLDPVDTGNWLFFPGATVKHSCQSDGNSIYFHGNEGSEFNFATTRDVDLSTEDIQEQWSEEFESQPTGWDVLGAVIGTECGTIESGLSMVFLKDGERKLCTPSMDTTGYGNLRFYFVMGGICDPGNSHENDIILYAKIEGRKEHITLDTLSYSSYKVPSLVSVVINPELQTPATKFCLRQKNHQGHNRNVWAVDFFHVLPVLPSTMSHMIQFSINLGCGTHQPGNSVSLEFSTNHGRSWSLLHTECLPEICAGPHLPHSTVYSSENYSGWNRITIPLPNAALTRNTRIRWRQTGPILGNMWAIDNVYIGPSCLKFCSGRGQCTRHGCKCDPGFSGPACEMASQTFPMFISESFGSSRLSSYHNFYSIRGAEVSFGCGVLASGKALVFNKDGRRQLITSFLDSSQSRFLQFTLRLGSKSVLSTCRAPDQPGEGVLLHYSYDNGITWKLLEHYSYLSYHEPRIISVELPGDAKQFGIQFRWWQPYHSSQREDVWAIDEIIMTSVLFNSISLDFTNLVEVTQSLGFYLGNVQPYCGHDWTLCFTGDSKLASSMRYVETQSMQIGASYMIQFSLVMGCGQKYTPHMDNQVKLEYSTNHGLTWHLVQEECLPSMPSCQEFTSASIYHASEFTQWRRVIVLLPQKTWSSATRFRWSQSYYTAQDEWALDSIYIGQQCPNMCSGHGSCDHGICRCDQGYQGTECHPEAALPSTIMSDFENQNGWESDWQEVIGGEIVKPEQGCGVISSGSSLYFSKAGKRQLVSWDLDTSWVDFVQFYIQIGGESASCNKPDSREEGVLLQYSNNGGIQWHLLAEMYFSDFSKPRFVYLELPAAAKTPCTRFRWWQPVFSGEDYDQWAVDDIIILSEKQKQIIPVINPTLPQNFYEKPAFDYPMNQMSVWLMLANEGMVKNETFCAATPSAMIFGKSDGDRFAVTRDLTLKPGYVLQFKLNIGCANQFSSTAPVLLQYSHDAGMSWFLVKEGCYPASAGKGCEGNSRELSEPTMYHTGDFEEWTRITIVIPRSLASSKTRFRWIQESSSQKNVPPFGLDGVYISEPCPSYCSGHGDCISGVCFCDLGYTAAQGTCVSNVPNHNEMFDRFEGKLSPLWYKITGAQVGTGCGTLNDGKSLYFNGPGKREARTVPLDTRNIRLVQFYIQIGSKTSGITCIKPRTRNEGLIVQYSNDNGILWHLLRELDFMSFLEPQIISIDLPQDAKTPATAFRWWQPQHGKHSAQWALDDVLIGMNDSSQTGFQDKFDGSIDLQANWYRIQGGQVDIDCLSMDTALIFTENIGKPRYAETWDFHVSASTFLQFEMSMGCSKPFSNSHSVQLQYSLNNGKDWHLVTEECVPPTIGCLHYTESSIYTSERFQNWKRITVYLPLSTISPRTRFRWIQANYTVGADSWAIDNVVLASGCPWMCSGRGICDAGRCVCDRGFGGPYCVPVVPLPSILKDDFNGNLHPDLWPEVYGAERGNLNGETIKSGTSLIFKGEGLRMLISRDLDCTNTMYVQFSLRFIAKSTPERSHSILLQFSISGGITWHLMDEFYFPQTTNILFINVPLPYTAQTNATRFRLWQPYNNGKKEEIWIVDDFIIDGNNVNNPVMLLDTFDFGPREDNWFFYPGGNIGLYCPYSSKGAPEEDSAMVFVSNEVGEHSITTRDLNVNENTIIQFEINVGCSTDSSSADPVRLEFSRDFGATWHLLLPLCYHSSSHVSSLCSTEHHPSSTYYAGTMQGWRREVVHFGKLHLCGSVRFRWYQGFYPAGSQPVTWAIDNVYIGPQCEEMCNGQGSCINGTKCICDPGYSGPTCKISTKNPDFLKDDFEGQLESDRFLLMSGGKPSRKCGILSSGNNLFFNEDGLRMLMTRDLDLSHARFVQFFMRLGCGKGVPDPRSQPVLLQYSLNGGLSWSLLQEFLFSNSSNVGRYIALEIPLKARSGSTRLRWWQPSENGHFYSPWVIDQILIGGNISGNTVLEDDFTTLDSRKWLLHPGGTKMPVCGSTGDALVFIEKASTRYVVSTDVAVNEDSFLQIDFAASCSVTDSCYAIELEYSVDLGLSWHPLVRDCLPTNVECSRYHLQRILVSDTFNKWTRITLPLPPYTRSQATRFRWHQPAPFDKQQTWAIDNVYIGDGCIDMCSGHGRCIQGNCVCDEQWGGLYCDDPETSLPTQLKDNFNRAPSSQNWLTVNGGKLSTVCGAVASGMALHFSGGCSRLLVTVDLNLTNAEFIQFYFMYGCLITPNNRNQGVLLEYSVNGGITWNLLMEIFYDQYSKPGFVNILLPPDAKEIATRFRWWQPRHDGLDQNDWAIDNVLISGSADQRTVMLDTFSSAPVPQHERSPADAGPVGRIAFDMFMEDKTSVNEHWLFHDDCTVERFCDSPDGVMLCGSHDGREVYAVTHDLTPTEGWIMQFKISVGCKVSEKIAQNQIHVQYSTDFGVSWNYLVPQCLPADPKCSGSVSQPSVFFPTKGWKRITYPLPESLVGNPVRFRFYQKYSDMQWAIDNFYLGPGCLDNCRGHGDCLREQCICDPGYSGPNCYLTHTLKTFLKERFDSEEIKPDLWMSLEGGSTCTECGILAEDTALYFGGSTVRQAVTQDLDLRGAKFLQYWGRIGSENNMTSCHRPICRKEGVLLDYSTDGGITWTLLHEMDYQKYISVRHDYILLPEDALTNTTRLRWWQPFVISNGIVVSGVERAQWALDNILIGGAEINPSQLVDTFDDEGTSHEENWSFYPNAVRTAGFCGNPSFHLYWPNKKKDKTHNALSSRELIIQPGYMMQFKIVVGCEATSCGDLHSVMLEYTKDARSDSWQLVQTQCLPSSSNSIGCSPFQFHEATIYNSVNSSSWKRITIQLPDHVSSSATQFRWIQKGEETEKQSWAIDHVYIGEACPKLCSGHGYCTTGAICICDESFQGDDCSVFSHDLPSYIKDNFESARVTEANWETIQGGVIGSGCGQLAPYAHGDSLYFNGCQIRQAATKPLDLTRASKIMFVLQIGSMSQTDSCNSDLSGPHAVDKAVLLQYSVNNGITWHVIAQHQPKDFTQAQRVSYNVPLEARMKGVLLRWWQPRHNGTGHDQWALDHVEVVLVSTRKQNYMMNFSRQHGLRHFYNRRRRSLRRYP
substance,measurement,value
reelin (from UniProt P78509),Kd,0.5 nM
